Reference: IntAct's records for PubMed 11971877

B1: Proline-serine-threonine phosphatase-interacting protein 1 (Homo sapiens), O43586 (parent)
chain: MMPQLQFKDAFWCRDFTAHTGYEVLLQRLLDGRKMCKDMEELLRQRAQAEERYGKELVQIARKAGGQTEINSLRASFDSLKQQMENVGSSHIQLALTLREELRSLEEFRERQKEQRKKYEAVMDRVQKSKLSLYKKAMESKKTYEQKCRDADDAEQAFERISANGHQKQVEKSQNKARQCKDSATEAERVYRQSIAQLEKVRAEWEQEHRTTCEAFQLQEFDRLTILRNALWVHSNQLSMQCVKDDELYEEVRLTLEGCSIDADIDSFIQAKSTGTEPPAPVPYQNYYDREVTPLTSSPGIQPSCGMIKRFSGLLHGSPKTTSLAASAASTETLTPTPERNEGVYTAIAVQEIQGNPASPAQEYRALYDYTAQNPDELDLSAGDILEVILEGEDGWWTVERNGQRGFVPGSYLEKL
partner: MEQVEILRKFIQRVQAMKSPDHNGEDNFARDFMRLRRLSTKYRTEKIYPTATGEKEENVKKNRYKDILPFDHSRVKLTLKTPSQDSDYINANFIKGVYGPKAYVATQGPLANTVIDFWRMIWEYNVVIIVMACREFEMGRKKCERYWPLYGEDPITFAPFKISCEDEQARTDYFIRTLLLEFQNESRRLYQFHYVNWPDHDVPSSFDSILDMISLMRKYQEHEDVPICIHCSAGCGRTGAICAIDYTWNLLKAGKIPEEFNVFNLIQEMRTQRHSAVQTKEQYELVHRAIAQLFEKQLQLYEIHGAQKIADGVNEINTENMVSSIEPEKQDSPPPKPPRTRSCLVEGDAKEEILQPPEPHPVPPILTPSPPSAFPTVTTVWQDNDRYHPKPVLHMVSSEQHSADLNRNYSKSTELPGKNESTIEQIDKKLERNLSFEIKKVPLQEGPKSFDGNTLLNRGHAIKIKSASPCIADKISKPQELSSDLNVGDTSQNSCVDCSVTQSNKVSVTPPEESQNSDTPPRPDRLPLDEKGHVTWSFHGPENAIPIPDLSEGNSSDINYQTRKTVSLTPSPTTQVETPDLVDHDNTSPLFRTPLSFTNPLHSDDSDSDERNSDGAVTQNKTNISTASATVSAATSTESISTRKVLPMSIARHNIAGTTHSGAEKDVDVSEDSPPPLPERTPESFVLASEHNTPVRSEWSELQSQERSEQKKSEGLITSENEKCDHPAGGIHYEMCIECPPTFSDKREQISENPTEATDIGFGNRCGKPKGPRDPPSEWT

Variants of: B1
Conditions: with ptn12_human PTPN12, Q05209

| Variant | effect of a mutation on the interaction |
| --- | --- |
| E250Q | decreasing interaction |
| A230T | decreasing interaction |
